{"source": "patent US20070141066A1", "about": "“Method for Diagnosing, Prognosing and Treating Glioma” (Genentech, Inc., priority 2005, published 2007)", "molecules": {"B1": {"name": "BDNF: the neurotrophic factor BDNF (protein, UniProt P23560 19-247, looked up)", "Neurotrophic factor BDNF …": "APMKEANIRGQGGLAYPGVRTHGTLESVNGPKAGSRGLTSLADTFEHVIEELLDEDQKVRPNEENNKDADLYTSRVMLSSQVPLEPPLLFLLEEYKNYLDAANMSMRVRRHSDPARRGELSVCDSISEWVTAADKKTAVDMSGGTVTVLEKVPVSKGQLKQYFYETKCNPMGYTKEGCRGIDKRHWNSQCRTTQSYVRALTMDSKKRIGWRFIRIDTSCVCTLTIKRGR"}}, "tested_on": "neural stem cell lines derived from fetal human brain", "assay": "Expression signature (35 signature genes) of neural stem cell lines after BDNF treatment and withdrawal", "format": "cell-based", "settings": "two neural stem cell lines", "experimental": "Signal intensity values from Microarray Analysis Suite version were utilized with a scaling factor of 500 for all analysis of microarray data. K-means clustering and agglomerative clustering were performed with the use of Spotfire Decision Site software version 7.3 using Pearson correlation as the similarity measure. For each gene, data was normalized into Z scores prior to clustering. The 35 signature genes used for tumor classification represent the most robust markers for each of three tumor subsets in the MDA survival sample set. Markers of each subset are identified as follows: Each of the 76 samples is assigned to one of three groups based on k-means clustering of expression of the 108 genes most strongly correlated with survival. Using a p value cutoff of 1×10^−4, t tests were utilized to identify all genes whose expression differed between samples in each subclass compared to tumors of other subclasses (see Table A, GDM). For each comparison, we then rank-ordered the 500 probe sets with the smallest p values, by fold change. […] The final 35 signature genes contain 15 PN, 15 Mes, and 5 Prolif markers. […] For statistical comparisons of data presented in FIG. 4 F-I and FIG. 7, log-transformed data was analyzed via t tests corrected for multiple group comparisons. […]"}
{"molecule": "B1", "values": [{"measurement": "shift of expression signature subclass", "result": "shifted signature subclass from the PN to the Mes class"}]}
